Source: patent US7049122B2, “Mutant-type lipases and applications thereof” (priority 2001, dated 2006)

Columns and labels:
[1] = tested on: CCCC(=O)Oc1ccc([N+](=O)[O-])cc1; experiment: Kinetic analysis of hydrolysis of p-nitrophenyl butyrate (p-nitrophenol formation), wild-type lipase; assay type: biochemical, Staphylococcus epidermidis; conditions: other: wild-type, substrate p-nitrophenyl butyrate, 50 mM phosphate buffer (pH 6.0), 37° C., means ± standard error, three experiments
Excerpt: (§1) A fragment of the gehC gene (designated “Lys-303” gene), which encoded an amino acid sequence corresponding to that of the S. epidermidis lipase following proteolytic cleavage between Ala-302 and Lys-303, was synthesized by polymerase chain reaction (PCR) using a chromosomal DNA from a S. epidermidis isolated from a patient in Chang-Gung Hospital (Keelung, Taiwan) as template. The gehC gene is a Staphylococcus epidermidis strain 9 lipase gene. The gene consisted of a single open reading frame of 2064 nucleotides, which encoded a protein of 688 amino acids with a predicted molecular mass of 77 kDa. The Lys-303 gene (SEQ ID NO:13) encoded an active lipase (SEQ ID NO:14), which was about 43 kDa in molecular weight. The Lys-303-encoded lipase is also known as the “43 kDa” or “wild-type” lipase. Two primers: an N-terminal primer of SEQ ID NO:1 (5′-[…]-3′) and a C-terminal primer of SEQ ID NO:2 (5′-[…]-3′) were used in this synthetic process.
(§2) The purified enzymes and substrate p-nitrophenyl butyrate (2.64 mM predissolved in 2.1% Triton X-100) were mixed in 50 mM phosphate buffer (pH 6.0). The reactions were carried out at 37° C. for 15 min and were terminated by the addition of acetone (1:1, v/v) (Kazlauskas 1994). The absorption values of the reaction product (p-nitrophenol) at 346 nm were determined, and the hydrolase activity (a general indicator for the lipolytic activity) of the purified enzymes was obtained, after converting the absorption values into mmols of p-nitrophenol quantity (at pH 6.0) curve. The molar extinction coefficient of p-nitrophenol under this condition was 2988[…].
(§3) The mutation apparently affected the enzyme's ability to stabilize the transition state more than it affected the substrate binding ability of the enzyme. […] The kcat/Km ratio is the pertinent parameter to determine kinetic efficiency of an enzyme.

[2] = tested on: CCCC(=O)Oc1ccc([N+](=O)[O-])cc1; experiment: Kinetic analysis of hydrolysis of p-nitrophenyl butyrate (p-nitrophenol formation), mutant M419A; assay type: biochemical, Staphylococcus epidermidis; conditions: other: M419A, substrate p-nitrophenyl butyrate, 50 mM phosphate buffer (pH 6.0), 37° C., means ± standard error, three experiments
Excerpt: (§4) The mutant-type lipase is preferably obtained from site-directed mutagenesis of a lipase isolated from Staphylococcus, most favorably Staphylococcus epidermidis. The mutant lipase from Stapylococcus epidermidis that has an alanine residue replacing the methionine residue which immediately follows the serine residue of the Ser-His-Asp catalytic triad has the amino acid sequence of SEQ ID NO: 15. The mutant lipase from Stapylococcus epidermidis that has an isoleucine residue replacing the valine residue which immediately follows the histidine residue of the Ser-His-Asp catalytic triad has the amino acid sequence of SEQ ID NO: 17.
as §2, §3

[3] = biological target: Staphylococcus epidermidis strain 9 lipase, wild-type (recombinant 43 kDa "Lys-303" lipase, C-terminal His-tag), SEQ ID NO:14 (Staphylococcus epidermidis, UniProt P0C0R3); experiment: Kinetic analysis of hydrolysis of p-nitrophenyl butyrate (p-nitrophenol formation), wild-type lipase; assay type: biochemical; conditions: substrate p-nitrophenyl butyrate, 50 mM phosphate buffer (pH 6.0), 37° C., means ± standard error, three experiments
Excerpt: as §1, §2, §3

[4] = biological target: Staphylococcus epidermidis strain 9 lipase variant M419A (Met-419 to Ala), SEQ ID NO:15 (Staphylococcus epidermidis, UniProt P0C0R3, M419A); experiment: Kinetic analysis of hydrolysis of p-nitrophenyl butyrate (p-nitrophenol formation), mutant M419A; assay type: biochemical; conditions: M419A vs wild-type; substrate p-nitrophenyl butyrate
Excerpt: as §4, §2, §3

[5] = biological target: Staphylococcus epidermidis strain 9 lipase variant H648K (His-648 to Lys), SEQ ID NO:16 (Staphylococcus epidermidis, UniProt P0C0R3, H648K); experiment: Kinetic analysis of hydrolysis of p-nitrophenyl butyrate (p-nitrophenol formation), mutant H648K; assay type: biochemical; conditions: H648K vs wild-type, substrate p-nitrophenyl butyrate
Experimental: as §2

[6] = biological target: Staphylococcus epidermidis strain 9 lipase variant V649I (Val-649 to Ile), SEQ ID NO:17 (Staphylococcus epidermidis, UniProt P0C0R3, V649I); experiment: Kinetic analysis of hydrolysis of p-nitrophenyl butyrate (p-nitrophenol formation), mutant V649I; assay type: biochemical; conditions: V649I vs wild-type; substrate p-nitrophenyl butyrate
Excerpt: as §4, §2

S. hyicus lipase = conditions: Chang et al. (1996); cited from earlier work
[7] = tested on: CCCC(=O)Oc1ccc([N+](=O)[O-])cc1; experiment: Kinetic analysis of hydrolysis of p-nitrophenyl butyrate (p-nitrophenol formation), mutant V649I; assay type: biochemical, Staphylococcus epidermidis; conditions: other: V649I, substrate p-nitrophenyl butyrate, 50 mM phosphate buffer (pH 6.0), 37° C., means ± standard error, three experiments
Excerpt: as §4, §2

[8] = tested on: CCCC(=O)Oc1ccc([N+](=O)[O-])cc1; experiment: Kinetic analysis of hydrolysis of p-nitrophenyl butyrate (p-nitrophenol formation), mutant H648K; assay type: biochemical, Staphylococcus epidermidis; conditions: other: H648K, substrate p-nitrophenyl butyrate, 50 mM phosphate buffer (pH 6.0), 37° C., means ± standard error, three experiments
Experimental: as §2

Sequence of Staphylococcus epidermidis strain 9 lipase variant H648K (His-648 to Lys), SEQ ID NO:16 (P0C0R3 303-688 H648K): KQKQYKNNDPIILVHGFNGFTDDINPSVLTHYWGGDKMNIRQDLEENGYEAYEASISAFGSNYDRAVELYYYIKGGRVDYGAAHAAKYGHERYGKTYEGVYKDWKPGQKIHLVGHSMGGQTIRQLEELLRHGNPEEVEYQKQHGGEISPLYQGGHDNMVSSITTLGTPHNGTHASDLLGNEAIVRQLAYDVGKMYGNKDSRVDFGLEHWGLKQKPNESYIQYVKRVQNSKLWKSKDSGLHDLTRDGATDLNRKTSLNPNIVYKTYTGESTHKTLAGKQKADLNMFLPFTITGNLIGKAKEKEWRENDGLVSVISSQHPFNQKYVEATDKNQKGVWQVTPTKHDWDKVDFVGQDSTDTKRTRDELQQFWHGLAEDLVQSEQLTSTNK
Sequence of Staphylococcus epidermidis strain 9 lipase variant V649I (Val-649 to Ile), SEQ ID NO:17 (P0C0R3 303-688 V649I): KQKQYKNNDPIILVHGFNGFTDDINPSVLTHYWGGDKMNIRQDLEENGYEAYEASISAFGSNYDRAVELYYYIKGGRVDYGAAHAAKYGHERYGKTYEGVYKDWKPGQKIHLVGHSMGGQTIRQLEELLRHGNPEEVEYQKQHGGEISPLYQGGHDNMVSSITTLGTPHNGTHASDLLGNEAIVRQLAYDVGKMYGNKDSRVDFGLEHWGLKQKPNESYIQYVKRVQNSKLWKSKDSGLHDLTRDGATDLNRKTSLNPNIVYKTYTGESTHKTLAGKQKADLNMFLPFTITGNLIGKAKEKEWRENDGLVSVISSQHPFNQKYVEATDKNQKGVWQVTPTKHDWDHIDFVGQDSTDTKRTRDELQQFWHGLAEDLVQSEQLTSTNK
Sequence of Staphylococcus epidermidis strain 9 lipase variant M419A (Met-419 to Ala), SEQ ID NO:15 (P0C0R3 303-688 M419A): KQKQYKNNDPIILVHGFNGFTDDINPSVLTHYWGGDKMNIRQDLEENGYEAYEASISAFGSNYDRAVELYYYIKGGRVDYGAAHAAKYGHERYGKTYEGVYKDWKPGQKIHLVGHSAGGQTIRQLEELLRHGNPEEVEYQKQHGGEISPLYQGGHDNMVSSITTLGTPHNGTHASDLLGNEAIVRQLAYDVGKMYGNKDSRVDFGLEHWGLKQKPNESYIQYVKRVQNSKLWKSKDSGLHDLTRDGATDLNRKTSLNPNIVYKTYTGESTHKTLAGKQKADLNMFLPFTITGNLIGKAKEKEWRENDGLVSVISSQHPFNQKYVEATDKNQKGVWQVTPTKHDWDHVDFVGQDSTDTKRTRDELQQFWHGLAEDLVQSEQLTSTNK
Sequence of Staphylococcus epidermidis strain 9 lipase, wild-type (recombinant 43 kDa "Lys-303" lipase, C-terminal His-tag), SEQ ID NO:14 (P0C0R3 303-688): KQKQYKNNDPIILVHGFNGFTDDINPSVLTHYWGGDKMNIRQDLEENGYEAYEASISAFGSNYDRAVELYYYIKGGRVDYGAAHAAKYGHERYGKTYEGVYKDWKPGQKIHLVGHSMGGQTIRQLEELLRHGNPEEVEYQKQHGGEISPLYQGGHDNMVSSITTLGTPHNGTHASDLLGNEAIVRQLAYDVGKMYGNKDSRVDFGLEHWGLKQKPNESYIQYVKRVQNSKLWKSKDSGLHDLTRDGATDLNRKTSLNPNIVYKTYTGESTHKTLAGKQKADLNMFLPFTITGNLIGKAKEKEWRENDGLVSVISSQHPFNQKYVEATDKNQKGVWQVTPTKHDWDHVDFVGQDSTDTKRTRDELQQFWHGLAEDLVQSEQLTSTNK

Staphylococcus epidermidis strain 9 lipase, wild-type (recombinant 43 kDa "Lys-303" lipase, C-terminal His-tag), SEQ ID NO:14 (Staphylococcus epidermidis)
Km [1]: 900 ± 80 µM | kcat [1]: 25.1 ± 0.6 s⁻¹ | kcat/Km [1]: 27900 M⁻¹ s⁻¹

Staphylococcus epidermidis strain 9 lipase variant M419A (Met-419 to Ala), SEQ ID NO:15 (Staphylococcus epidermidis; M419A)
Km [2]: 3970 ± 120 µM | kcat [2]: 218 ± 14 s⁻¹ | kcat/Km [2]: 54800 M⁻¹ s⁻¹

CCCC(=O)Oc1ccc([N+](=O)[O-])cc1 [p-nitrophenyl butyrate]
kcat [3]: 25.1 s⁻¹ | increase in catalytic efficiency (kcat/Km) in comparison with the wild-type enzyme [4]: 2.0 fold | kcat compared with the wild-type enzyme (decreased to) [5]: 10.4% | change in the Km compared with the wild-type enzyme ([5]; in words): little change | increase in kcat in comparison with the wild-type enzyme [6]: 13.4 fold | increase in the kcat/Km in comparison with the wild-type enzyme [6]: 4.0 fold | Km (S. hyicus lipase): 2070 µM | kcat (S. hyicus lipase): 0.53 s⁻¹ | kcat/Km (S. hyicus lipase): 257 M⁻¹ s⁻¹

Staphylococcus epidermidis strain 9 lipase variant V649I (Val-649 to Ile), SEQ ID NO:17 (Staphylococcus epidermidis; V649I)
Km [7]: 3020 ± 210 µM | kcat [7]: 336 ± 15.7 s⁻¹ | kcat/Km [7]: 111000 M⁻¹ s⁻¹

Staphylococcus epidermidis strain 9 lipase variant H648K (His-648 to Lys), SEQ ID NO:16 (Staphylococcus epidermidis; H648K)
Km [8]: 950 ± 350 µM | kcat [8]: 2.6 ± 0.9 s⁻¹ | kcat/Km [8]: 2700 M⁻¹ s⁻¹
